How the values were obtained:
[1] = target: high molecular weight (HMW) proto-fibrillar (PF) oligomer enriched preparation of the Aβ1-42 peptide (Example 15) (human); test: ELISA, fraction coated at 2 µM; antibody 0.125 µg/ml
[2] = target: low molecular weight (LMW) monomeric preparation of the Aβ1-42 peptide (Example 15) (human); test: as above
[3] = target: monomer-enriched preparation of the Aβ1-42 peptide (Example 16); test: ELISA, fraction coated at 2.2 µM; antibody dilution 1:2 (start 0.5 µg/ml)
monomer-enriched preparation of the Aβ1-42 peptide (Example 16), sequence (peptide, as listed by the source): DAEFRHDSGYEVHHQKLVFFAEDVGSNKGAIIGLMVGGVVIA

[4] = target: oligomer-enriched preparation of the Aβ1-42 peptide (Example 16); test: as above
oligomer-enriched preparation of the Aβ1-42 peptide (Example 16), sequence (peptide, as listed by the source): as above

[5] = target: oligomer-enriched preparation of the Aβ1-42 peptide (Example 16); test: ELISA, fraction coated at 2.2 µM; antibody dilution 1:8 (start 0.5 µg/ml)
[6] = target: monomer-enriched preparation of the Aβ1-42 peptide (Example 16); test: ELISA, fraction coated at 2.2 µM; antibody dilution 1:128 (start 0.5 µg/ml)
[7] = target: oligomer-enriched preparation of the Aβ1-42 peptide (Example 16); test: as above
[8] = target: oligomer-enriched preparation of the Aβ1-42 peptide (Example 16); test: ELISA, fraction coated at 2.2 µM; assay 1; antibody dilution 1:4 (start 0.5 µg/ml)
[9] = target: monomer-enriched preparation of the Aβ1-42 peptide (Example 16); test: ELISA, fraction coated at 2.2 µM; assay 1; antibody dilution 1:8 (start 0.5 µg/ml)
[10] = target: oligomer-enriched preparation of the Aβ1-42 peptide (Example 16); test: as above
[11] = target: monomer-enriched preparation of the Aβ1-42 peptide (Example 16); test: ELISA, fraction coated at 2.2 µM; assay 2; antibody dilution 1:2 (start 0.5 µg/ml)
[12] = target: oligomer-enriched preparation of the Aβ1-42 peptide (Example 16); test: as above
[13] = target: monomer-enriched preparation of the Aβ1-42 peptide (Example 16); test: ELISA, fraction coated at 2.2 µM; assay 2; antibody dilution 1:4 (start 0.5 µg/ml)
[14] = target: oligomer-enriched preparation of the Aβ1-42 peptide (Example 16); test: as above
[15] = target: monomer-enriched preparation of the Aβ1-42 peptide (Example 16); test: ELISA, fraction coated at 2.2 µM; assay 3; antibody dilution 1:1 (start 0.5 µg/ml)
[16] = target: oligomer-enriched preparation of the Aβ1-42 peptide (Example 16); test: as above
[17] = target: monomer-enriched preparation of the Aβ1-42 peptide (Example 16); test: ELISA, fraction coated at 2.2 µM; assay 3; antibody dilution 1:4 (start 0.5 µg/ml)
[18] = target: oligomer-enriched preparation of the Aβ1-42 peptide (Example 16); test: as above
[19] = target: monomer-enriched preparation of the Aβ1-42 peptide (Example 16); test: ELISA, fraction coated at 2.2 µM; assay 1; antibody dilution 1:32 (start 0.5 µg/ml)
[20] = target: oligomer-enriched preparation of the Aβ1-42 peptide (Example 16); test: as above
[21] = target: monomer-enriched preparation of the Aβ1-42 peptide (Example 16); test: ELISA, fraction coated at 2.2 µM; assay 2; antibody dilution 1:16 (start 0.5 µg/ml)
[22] = target: oligomer-enriched preparation of the Aβ1-42 peptide (Example 16); test: as above
[23] = target: monomer-enriched preparation of the Aβ1-42 peptide (Example 16); test: ELISA, fraction coated at 2.2 µM; assay 2; antibody dilution 1:32 (start 0.5 µg/ml)
[24] = target: oligomer-enriched preparation of the Aβ1-42 peptide (Example 16); test: as above
[25] = target: monomer-enriched preparation of the Aβ1-42 peptide (Example 16); test: ELISA, fraction coated at 2.2 µM; assay 2; antibody dilution 1:64 (start 0.5 µg/ml)
[26] = target: oligomer-enriched preparation of the Aβ1-42 peptide (Example 16); test: as above
[27] = target: monomer-enriched preparation of the Aβ1-42 peptide (Example 16); test: ELISA, fraction coated at 2.2 µM; assay 3; antibody dilution 1:16 (start 0.5 µg/ml)
[28] = target: oligomer-enriched preparation of the Aβ1-42 peptide (Example 16); test: as above
[29] = target: monomer-enriched preparation of the Aβ1-42 peptide (Example 16); test: ELISA, fraction coated at 2.2 µM; assay 3; antibody dilution 1:32 (start 0.5 µg/ml)
[30] = target: oligomer-enriched preparation of the Aβ1-42 peptide (Example 16); test: as above
[31] = target: monomer-enriched preparation of the Aβ1-42 peptide (Example 16); test: ELISA, fraction coated at 2.2 µM; assay 1; antibody dilution 1:128 (start 0.5 µg/ml)
[32] = target: monomer-enriched preparation of the Aβ1-42 peptide (Example 16); test: ELISA, fraction coated at 2.2 µM; assay 2; antibody dilution 1:128 (start 0.5 µg/ml)
[33] = target: oligomer-enriched preparation of the Aβ1-42 peptide (Example 16); test: as above

low molecular weight (LMW) monomeric preparation of the Aβ1-42 peptide (Example 15) (human), sequence (peptide, as listed by the source): as above
high molecular weight (HMW) proto-fibrillar (PF) oligomer enriched preparation of the Aβ1-42 peptide (Example 15) (human), sequence (peptide, as listed by the source): as above

- O.D. (405 nm) [1]: 0.863 O.D.
- O.D. (405 nm) [2]: 0.999 O.D.
- O.D. (405 nm), mean of 3 assays [3]: 3.59 O.D.
- O.D. (405 nm), mean of 3 assays [4]: 3.59 O.D.
- O.D. (405 nm), mean of 3 assays [5]: 2.98 O.D.
- O.D. (405 nm), mean of 3 assays [6]: 0.75 O.D.
- O.D. (405 nm), mean of 3 assays [7]: 0.63 O.D.
- O.D. (405 nm) [8]: 3.1 O.D.
- O.D. (405 nm) [9]: 2.67 O.D.
- O.D. (405 nm) [10]: 2.73 O.D.
- O.D. (405 nm) [11]: 3.48 O.D.
- O.D. (405 nm) [12]: 3.55 O.D.
- O.D. (405 nm) [13]: 3.29 O.D.
- O.D. (405 nm) [14]: 3.37 O.D.
- O.D. (405 nm) [15]: 4.04 O.D.
- O.D. (405 nm) [16]: 3.89 O.D.
- O.D. (405 nm) [17]: 3.52 O.D.
- O.D. (405 nm) [18]: 3.64 O.D.
- O.D. (405 nm) [19]: 1.18 O.D.
- O.D. (405 nm) [20]: 1.27 O.D.
- O.D. (405 nm) [21]: 1.94 O.D.
- O.D. (405 nm) [22]: 1.92 O.D.
- O.D. (405 nm) [23]: 1.34 O.D.
- O.D. (405 nm) [24]: 1.3 O.D.
- O.D. (405 nm) [25]: 0.94 O.D.
- O.D. (405 nm) [26]: 0.88 O.D.
- O.D. (405 nm) [27]: 2.23 O.D.
- O.D. (405 nm) [28]: 2.07 O.D.
- O.D. (405 nm) [29]: 1.54 O.D.
- O.D. (405 nm) [30]: 1.4 O.D.
- O.D. (405 nm) [31]: 0.64 O.D.
- O.D. (405 nm) [32]: 0.75 O.D.
- O.D. (405 nm) [33]: 0.61 O.D.
Substance: 6E10 control antibody

From patent US20090017041A1
